In patent US20220017636A1 (Amgen, published 2022):
Changes are numbered by the printed parent chain.

B1: 18182-H12 (scFv)
scFv: EVQLLESGGGLVQPGGSLRLSCAASGFTFSSYAMSWVRQAPGKGLEWVSTISGSGGGTYYADSVKGRFTISRDNSKNTLYLQMNSLRAEDTAVYYCATGKGVHLGFDYWGQGTLVTVSSGGGGSGGGGSGGGGSELMLTQPHSVSVAPGQTARITCGGNNIGSKSVHWYQQKPGQAPVLVVYDDNDRPSGIPERFSGSNFGNTATLIISRVEAGDEADYYCQVWDSSSDHVVFGGGTKLTVL
notes: scFv in bacterial lysate, detected with anti-Flag M2
B2: 18179-G12 (scFv)
scFv: EVQLLESGAEVKKPGASVKVSCKASGYTFTRNGLSWVRQAPGQGLEWMGWISGYNGDTNYAQKLQGRGTMTTDTSTSTAYMELRSLRSDDTAVYYCARGRATFDYWGQGTLVTVSSGGGGSGGGGSGGGGSELVMTQSPSSLSASVGDRVTITCRASQGISNYLAWYQQKPGKVPKLLISAASTLQSGVPSRFSGSGSGTDFTLTISSLQPEDVATYYCQKYNSAPFTFGPGTKLEIK
notes: as for B1
B3: 18179-C1 (scFv)
scFv: B2 scFv with L235V, E236D
notes: as for B1
B4: 18081-H11 (scFv)
scFv: EVQLLESGPALVKPTQTLTLTCTFSGFSFTTHKMGVDWIRQPPGKALEWLALIYWNDDKRYSPSLQSRLTITKDTSKNQVVLTMTNMDPVDTATYYCAYRRYNWNYENWFDPWGQGTLVTVSSGGGGSGGGGSGGGGSELQMTQSPSSLSASVGDRVTITCQASQDISNYLNWYQQKPGKAPKLLIYAASSLQSGVPSRFSGSGSGTDFTLTISSLQPEDFATYYCQQSYTTPFTFGPGTKVEIK
notes: as for B1
B5: 18089-D11 (scFv)
scFv: B4 scFv with A10V, S62N, Q141V, Q162R, D166S, L171F, T231I, P238G, V242L
notes: as for B1
B6: 18089-C9 (scFv)
scFv: B4 scFv with A10T, Q162R, D166F, N169S, S203R, T231S
notes: as for B1
B7: 18081-E7 (scFv)
scFv: EVQLLESGPGLVKPSETLSLTCTVSGDSISSSRYYWGWIRQPPGKGLEWIGSIYYSGSTYYNPSLKSRVTISVDTSKNQFSLKLSSVTAADTAVYYCARGIFGVITYFDYWGQGTLVTVSSGGGGSGGGGSGGGGSELVMTQTPDSLAVSLGERATINCKSSQSVLYSSNNKNYLAWYQQKPGQPPKLLIYWASTRESGVPDRFSGSGSGTDFTLTISSLQAEDVAVYYCQQYYSTPLTFGGGTKVEIK
notes: as for B1
B8: 18081-B9 (scFv)
scFv: B7 scFv with T143S, Y233F, L238I, G242Q, K245R, V246L
notes: as for B1
B9: 18179-D7 (scFv)
scFv: EVQLLESGGGLVQPGGSLRLSCAASGFTFSNAWMSWVRQAPGKGLEWVGRIKGNTYGGTTDYAAPVKGRFTISRDDSKNTLFLQMNSLKTEDTAVYYCTTPSYSGSYYNYFSVMDVWGQGTTVTVSSGGGGSGGGGSGGGGSELVMTQSPSSLSASVGDRVTITCRTSQSISSYLNWYQQKPGRAPKLLIFAASSLQGGVPSRFSGSGSGTDFTLTISSLQPEDFATYYCQQTYSMPFTFGPGTKVDIK
notes: as for B1
B10: 18179-E1 (scFv)
scFv: B9 scFv with F82Y
notes: as for B1
B11: 18179-H7 (scFv)
scFv: B9 scFv with G53S, N54K, F82Y, V145Q, Y178F, R184K, G198S, T233S, M236S, D247E
notes: as for B1
B12: 18179-D11 (scFv)
scFv: B9 scFv with Q13K, V145Q
notes: as for B1
B13: 18179-A7 (scFv)
scFv: B9 scFv with Q13K
notes: as for B1
B14: 18181-F3 (scFv)
scFv: B9 scFv with T233S, M236S, D247E
notes: as for B1
B15: 18179-B12 (scFv)
scFv: B9 scFv with Y103N, Y178F, R184K, G198S, D247E
notes: as for B1
B16: 18181-F1 (scFv)
scFv: B9 scFv with Q13K, M236S, V246L, D247E
notes: as for B1
B17: 18181-A6 (scFv)
scFv: B9 scFv with F82Y, T167A, V246L, D247E
notes: as for B1

target: T1, COX14 peptide complexed with HLA-A*02:01 on T2 cells (human); experiment: flow cytometry, peptide-loaded T2 cells;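 also: binding of single-chain Fv antibody constructs, raised in XenoMouse, to peptide-pulsed T2 cells measured by flow cytometry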
T1 construct: whole, on cells
Experimental: (§1) Binding of pMAGE-HLA scFv constructs, generated from the XenoMouse, on peptide loaded T2 cells was evaluated by flow cytometry.

Signal/background | Binder
1.1 | B1
1.2 | B2
1 | B3
1 | B4
1.1 | B5
1 | B6
1.1 | B7
1 | B8
1 | B9
0.9 | B10
1 | B11
1 | B12
1 | B13
0.9 | B14
1 | B15
1.1 | B16
0.9 | B17

target: T2, SLK peptide complexed with HLA-A*02:01 on T2 cells (human); experiment: flow cytometry, peptide-loaded T2 cells;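 also: binding of single-chain Fv antibody constructs, raised in XenoMouse, to peptide-pulsed T2 cells measured by flow cytometry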
T2 construct: whole, on cells
Experimental: as §1

Signal/background | Binder
1 | B1
1.1 | B2
1 | B3
1.1 | B4
1.2 | B5
1.1 | B6
1.4 | B7
1.1 | B8
1.1 | B9
1.1 | B10
0.9 | B11
1 | B12
1 | B13
1 | B14
1 | B15
1.1 | B16
1.1 | B17

target: T3, KEA peptide complexed with HLA-A*02:01 on T2 cells (human); experiment: flow cytometry, peptide-loaded T2 cells;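 also: binding of single-chain Fv antibody constructs, raised in XenoMouse, to peptide-pulsed T2 cells measured by flow cytometry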
T3 construct: whole, on cells
Experimental: as §1

Signal/background | Binder
0.9 | B1
0.9 | B2
1 | B3
0.9 | B4
1 | B5
1 | B6
1 | B7
1.1 | B8
1 | B9
1 | B10
1 | B11
1 | B12
0.9 | B13
1 | B14
1 | B15
0.9 | B16
0.9 | B17

target: T4, MYOF peptide complexed with HLA-A*02:01 on T2 cells (human); experiment: flow cytometry, peptide-loaded T2 cells;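 also: binding of single-chain Fv antibody constructs, raised in XenoMouse, to peptide-pulsed T2 cells measured by flow cytometry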
T4 construct: whole, on cells
Experimental: as §1

Signal/background | Binder
1.2 | B1
0.9 | B2
0.9 | B3
1.1 | B4
1.1 | B5
1 | B6
1.1 | B7
1.1 | B8
1 | B9
1 | B10
1.1 | B11
1.1 | B12
1 | B13
1.1 | B14
1 | B15
1.1 | B16
1.1 | B17

target: T5, MAGEB2 peptide … (SEQ ID NO: 1) complexed with HLA-A*02:01 on the cell surface (human); experiment: flow cytometry, peptide-loaded T2 cells
T5 construct: whole, on cells; also called pMAGE-HLA; MAGEB2 pMHC
Experimental: as §1

Signal/background | Binder
298 | B1
42 | B2
43 | B3
32 | B4
78 | B5
39 | B6
298 | B7
153 | B8
281 | B9
419 | B10
399 | B11
345 | B12
267 | B13
232 | B14
368 | B15
443 | B16
430 | B17

target: T6, DPYSL4 peptide complexed with HLA-A*02:01 on T2 cells (human); experiment: flow cytometry, peptide-loaded T2 cells
T6 construct: whole, on cells
Experimental: as §1

Signal/background | Binder
1 | B1
1.1 | B2
1 | B3
1 | B4
1.1 | B5
0.9 | B6
1.2 | B7
1.1 | B8
1.1 | B9
1 | B10
1 | B11
1.1 | B12
1 | B13
1.1 | B14
1 | B15
1.1 | B16
1 | B17

target: T7, CNDP2 peptide complexed with HLA-A*02:01 on T2 cells (human); experiment: flow cytometry, peptide-loaded T2 cells
T7 construct: whole, on cells; also called CNPD2
Experimental: as §1

Signal/background | Binder
1 | B1
0.8 | B2
0.8 | B3
0.9 | B4
1 | B5
1 | B6
1 | B7
1 | B8
1.1 | B9
1 | B10
1 | B11
1 | B12
1 | B13
1.1 | B14
1 | B15
1.1 | B16
1 | B17

target: T8, ADF peptide complexed with HLA-A*02:01 on T2 cells (human); experiment: flow cytometry, peptide-loaded T2 cells
T8 construct: whole, on cells
Experimental: as §1

Signal/background | Binder
1 | B1
1.1 | B2
1.3 | B3
0.9 | B4
1.1 | B5
1 | B6
1 | B7
1 | B8
1 | B9
0.9 | B10
1.1 | B11
1 | B12
1 | B13
1 | B14
1 | B15
1.1 | B16
1 | B17

target: T9, STXBP5 peptide complexed with HLA-A*02:01 on T2 cells (human); experiment: flow cytometry, peptide-loaded T2 cells
T9 construct: whole, on cells
Experimental: as §1

Signal/background | Binder
1 | B1
0.9 | B2
0.9 | B3
0.9 | B4
1.1 | B5
1 | B6
1.1 | B7
1 | B8
1 | B9
1 | B10
1 | B11
1 | B12
1 | B13
1.2 | B14
1 | B15
1 | B16
1 | B17

target: T10, MB peptide complexed with HLA-A*02:01 on T2 cells (human); experiment: flow cytometry, peptide-loaded T2 cells
T10 construct: whole, on cells
Experimental: as §1

Signal/background | Binder
1.2 | B1
0.9 | B2
1 | B3
1 | B4
1.2 | B5
1.1 | B6
1 | B7
1.1 | B8
1 | B9
1 | B10
1 | B11
1 | B12
1.1 | B13
0.9 | B14
1 | B15
1 | B16
1 | B17
